In the supplement of paper PMC9170038:

Tested on: MS2 coat protein
Assay: apparent KD of MS2 coat protein; higher = weaker reporter binding
Details: Eterna round: R107
Experimental: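 RNA-MaP round R107: designed RNA switches with theophylline, tryptophan, arginine or FMN aptamers are transcribed on-chip within common flanks. They are titrated with SNAP-549-labelled MS2 coat protein in RNA-MaP buffer (100 mM Tris pH 7.5, 80 mM KCl, 4 mM MgCl2), without ligand or with the indicated ligand. Median apparent KD per design.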

[1] = input ligand: theophylline 20 uM
[2] = input ligand: theophylline 2 mM
[3] = input ligand: tryptophan 2.4 mM

Sequence	apparent KD of MS2 coat protein (input ligand: arginine 13.2 mM) [nM]	apparent KD of MS2 coat protein [1] [nM]	apparent KD of MS2 coat protein [2] [nM]	apparent KD of MS2 coat protein (input ligand: none) [nM]	apparent KD of MS2 coat protein [3] [nM]
AAUAAACAUGAGGAUCACCCAUGUAGGGUGCGAGGACCGGUACGGCCGCCACUCGGGUGAAAACAUGAGGAUCACCCAUGUAAAA [Mat - Exclusion - Trytophan A - D23]	61.1	185	220		
AAUAAACAUGAGGAUCACCCAUGUUGUUGACGAGGACCGGUACGGCCGCCACUCGACAUGAGGAUCACCCAUGUUGUCACAUGAG [Same State Tryptophan A]	73.1	190	256		
AAUACCGGAUCGGCCGCCACUGGUUGGCCCUGUGUACAUGAGGAUCACCCAUGUCCAUCCCAGACCAGGACCGGGAUCUUUGUGU [Ingeraza]	15.6	20	18.5		
AAUAGACAUGAGGAUCACCCAUGUAUGGAAGGAGCGGUGAAUAAGCCAGGUAGGUCGCCAGUGUGAGGGUUAUCUAUGUAAUAAA [#19 Exclusion - Arginine A]	27.4	41.6	35.7	38.4	40.8
AAUCGUAAGGCGGCCGCCACUACACAUGAGGAUCACCCAUGUCUCGCAGGCUUGCGUUGGGAUAGUAGGACCGGGCCAGUAAUAA [Exclusion - Tryptophan B (Freestyle 14)]	18.5	28.8	26.6		
AAUCUGAUUGCGGCCGCCACUAAUUUUCCAUGAGUAUUGCAAUUACAUGAGGAUCACCCAUGUCAUAGGACCGGGCAUGACAUCU [theeternabot_sameState_MS2_Trp_B_45]	104	202	309		
AAUGAGUGGUGGUCAAACAUGGGUGAUCAACGAGGACCGGUACGGCCGCCACUCGAUAACAUGAGGAUCACCCAUGUAAUAAUAA [|T'-M'-Trp-Ms2|_Design9]	55.5	492	683		
AAUGUAUGGCACAUGAGGAUCACCCAUGUGCGAGGACCGGUACGGCCGCCACUCGGUCAAGGGAUCUUACCUCUAUACAUUAAUG [XTryp A #22]	10.6	14.7	11.9		
AAUGUAUGGCACAUGAGGAUCACCCAUGUGCGAGGACCGGUACGGCCGCCACUCGGUCCUGGGAUCUUACAACUAUACAUUAAUG [XTryp A #20]	10.3	17.2	16.4		
AAUGUAUGGCACAUGAGGAUCACCCAUGUGCGAGGACCGGUACGGCCGCCACUCGGUCCUGGGAUCUUAUUACUAUACAUUAAUG [XTryp A #17]	11.8	15.7	12.5		
AAUUCCUCACAUGAGGAUCACCCAUGUGAAGGAGCGCCGAAUAAGGCAGGUAGGUCGCACAUGGAAACCGCUACGAAAGUAGCAA	13.1	64.8	20.5	20.5	21.3
AAUUCCUCACAUGAGGAUCACCCAUGUGAAGGAGCGCCGAAUAAGGCAGGUAGGUCGCACAUGGAAACCGCUGCGAAAGCAGCAA [MAT - Exclusion Arginine A - Mod of Eli - D25]	21	33.2	25	21.7	24.5
ACAAGUCCUCAUGAUACCAGCGAUGAGACAUAGUCUCAACAUGAGGAUCACCCAUGUAUUCGCCCUUGGCAGCAUACGGUUUUUG [Arleer]	85.1	373			517
ACACAUGAGGAUCACCCAUGUCCAAUAGAUACCAGUGAUACGGUGCACCCUUGGCAGCUGUUGCUGAGUGAUGGUUCCCUCGGAA [Same State Theophylline A GF4]	48.6	138			112
ACAUGAAGAACAGCGGUGGGCGCGCUCGAUACCAGUACUUUGAUUUACCCUUGGCAGCGACAUGAGGAUCACCCAUGUGAGAUGA [XTheo A #1]	16.9	22.4			18.6
ACAUGAGGAUCACCCAUGUAUGACUAUCCUCGAGGACCGGUACGGCCGCCACUCGAAGGAGUGGCUCGCGAGUGCGCACUUGCAA [5' end]	9.87	16.5	13.6	12.5	11.5
ACAUGAGGAUCACCCAUGUAUUACCGGGAAGGAGCGCGUAAGGACGCAGGUAGGUCGCUCGGCGUCGUGCCGGAAGGCACGACGA [#1 Same State - Arginine A Attempt #22 (HarryS)]	17.9	49.8	15.6	13.6	13.8
ACAUGAGGAUCACCCAUGUGAAGGCACGAUACCAGCUGAUCCCGUGGCCCUUGGCAGCGUCCGGUUUGGUCCGGCGGAUGAGACG [azamullin]	19.6	36.4			23.5
ACAUGAGGAUCACCCAUGUGGCGUCUUGAUACCAGACGAGAAGUAGUCCCUUGGCAGCAAAUACAUGAGGAUCACCCAUGUAGGA [cccmullin]	16.6	25.5			24.3

Sequence	apparent KD of MS2 coat protein (input ligand: arginine 13.2 mM) [nM]	apparent KD of MS2 coat protein [1] [nM]	apparent KD of MS2 coat protein [2] [nM]	apparent KD of MS2 coat protein (input ligand: none) [nM]	apparent KD of MS2 coat protein [3] [nM]
ACAUGAGGAUCACCCAUGUGUCCUCGAAAACGAGGACCGGUACGGCCGCCACUCGAAAUAAGCGACAAGCGAAAAGCUUGUCGCA [Mat - Exclusion - Trytophan A - D22]	57.6	194	135	113	406
ACAUGAGGAUCACCCAUGUGUGUAAAUCCUCGAGGACCGGUACGGCCGCCACUCGAUUGAGUGUAAGUUGAAUGUAACAUUCAAC [whbob_SS_trypto A_2s9]	46	134	144		
ACCGCGGUAUCGGCCGCCACUUGUGGGUUAAAUCUGGUACAUGAGGAUCACCCAUGUGUCUCCUCGAGGACCGGGAUAGCGUGAC [Geaner]	97.7	168	211		
ACCUGUACGAAAAGUGCAGGACACGGAAUACGAGGACCGGUACGGCCGCCACUCGGAUAAAACCUGAGGAUCACCCUGGUCCGUG [TrypAS 14 #AlternativeMS2 #Zipper #StaticStem]	27.7	43.5	34.6	24.6	22.6
ACCUGUACGAAAAGUGCAGGACAUGAAUAACGAGGACCGGUACGGCCGCCACUCGGGUAAUAACCUGAGGAUCACCCGGGUCAUG [TrypAS 6 #AlternativeMS2 #Zipper #StaticStem]	111	211	249	218	27.5
ACGACAUGAGGAUCACCCAUGUAAGGUGAUACCAGACGAAGUAAUGUCCCUUGGCAGCACACGCAUAGUUGCGAUUAUUGUACGA [JR_SSTheophyA_Sub007]	83.7	522			572
ACGACGGCUGCGGCCGCCACUGUACAUGAGGAUCACCCAUGUGUAGUAAUUGGGACCCUGUGUUACAGGACCGGGUAGUUGAUUA [Orquteer]	23.3	49	47.1		
ACGUAAUGCAGAAGGAGCGUCAUUUUAAAACAUGAGGAUCACCCAUGUAAUAUUUUUGUGUGACAGGUAGGUCGCUGAAGUACGA [JR_SSArginiB_Sub007]	13.9	17.7	14.4	13.4	11.8
ACGUAUGUCAGAAGGAGCGUCAAUAACAUGAGGAUCACCCAUGUAUUACAUAGGUAUAAUAGACAGGUAGGUCGCUGAAUUCGAA [JR_SSArginiB_Sub022]	22.4	46.4	31.2	29.2	27
ACGUCAUGGAGAACGUGACGACUUGUCGAUACCAGUGUUUGAUAGCGCCCUUGGCAGCGAACAUGAGGAUCACCCAUGUCAAGGG [#11 SameState-TheophyllineA]	51.7	84.6	88.9	72.8	66.4
ACGUCCAGGUUAAUCGUGGACAUGGUCGAUACCAGUAUUUUAAUCUACCCUUGGCAGCGACAUGAGGAUCACCCAUGUGCGAUGA [XTheo A #15]	11.7	14.7			13
ACGUCUCGAAAACUCGUAGUAACAAUAGAUACCAGUAGCGAGAGUUACCCUUGGCAGCUACAUGAGGAUCACCCAUGUACGAGGA [XTheo A #27]	19.1	26			18.1
ACUAGGCUCGGAAACGAGCCUAGGACAGAAGGAGCGUGGAUUAACACAGGUAGGUCGCUGACAUGAGGAUCACCCAUGUAUUUAU [SSAA #5]	19.9	31.2	25.6	27.3	21.9
ACUUGGUGGUGAUCCCUGCCAAGAGGUGAUACCAGCAUCGAAAGAUGCCCUUGGCAGCACCAACAUGAGGAUCACCCAUGUAAUA [(MT)''-(M)'-(T')-(Theo)-(Ms2)_Design1/22_6]	62.6	185			214
AGAAUGUAAUAUGGCAAAGUUAUAACCGAAGGAGCGCCGAAUAAGGCAGGUAGGUCGCGGAAACAUGAGGAUCACCCAUGUCCAU [Arginine A Same State; Euphoria Solution 3]	18.1	19	14.4	17.3	18
AGACAUGAGGAUCACCCAUGUAGUACGGAUACCAGAUCCAGAUGCGUCCCUUGGCAGCUGUAGUACAGCGUUACAUCGCUCAUAG [Exclusion - Theophylline A (Freestyle 25)]	21	44			36.4
AGACAUGAGGAUCACCCAUGUAGUAUGGAUACCAGAUGUAGAUUAGUCCCUUGGCAGCUGUGGUGAAGUGAUGCAUUGCUCCUAG [Exclusion - Theophylline A (Freestyle 1)]	19.5	36.4			23.2
AGAUGAGUCACGGCCGCCACUCUUAUCAGGAUCACCCAUGGUUGACAUGAGGAUCACCCAUGUAUGAGGACCGGGUGAUGAGCAU [XTryp B #1]	13.7	15.9	15		
